Reference: PMC4739419, “Mutations in the nucleotide binding and hydrolysis domains of Helicobacter pylori MutS2 lead to altered biochemical activities and inactivation of its in vivo function” (BMC Microbiology, 2016)

Tests used:
chymotrypsin = experiment: Limited proteolysis with chymotrypsin; settings: 37 °C; for effect of nucleotide pre-incubation on proteolysis: pre-incubation with ADP, ATP or ATPγS 1 mM, 15 min; for susceptibility to proteolysis compared to the wild-type protein: protein 4 μM, chymotrypsin 1.25 ng, 30 min, no nucleotide
Protocol: (§1) Fig. 4 Nucleotide and mutation induced conformational changes in HpMutS2. a Limited proteolysis. Proteins (4 μM) either free or pre-incubated with nucleotides (1 mM) were incubated with chymotrypsin (1.25 ng) for 30 min at 37 °C. All proteolysis reactions were performed in 1X buffer A lacking magnesium. Reactions were stopped by adding a protease inhibitor cocktail and the products were separated on SDS-PAGE (10 %). Lane M: Molecular weight marker. b Thermal stability profiles of wild-type HpMutS2, HpMutS2-G338R, and HpMutS2-E413A. Proteins (1 μM) dialyzed in 50 mM Tris-Cl and 100 mM NaCl were subjected to thermal denaturation and spectra were recorded at 222 nm using Jasco-815 spectropolarimeter
HpMutS2 (4 μM) was incubated with chymotrypsin (1.25 ng) or in buffer A lacking magnesium at 37 °C for 30 min. The reactions were stopped by addition of protease inhibitor cocktail (Sigma) and the proteolyzed products were separated on SDS-PAGE (10 %). Nucleotide cofactors (1 mM) were pre-incubated with the proteins for 15 min at 37 °C before addition of chymotrypsin. The heat denaturation of proteins was performed by heating them at 95 °C for 10 min. All the reactions were performed in 1X buffer A. Protein bands were detected by staining with Coomassie Brilliant Blue.

[1] = Thermal denaturation monitored by CD at 222 nm; assay type: physicochemical; settings: for temperature of 50 % unfolding: 25–80 °C; for thermal stability compared to the other variants: higher temperatures
Protocol: as §1
(§2) Freshly prepared proteins were dialyzed twice in buffer B for 4–6 h with at least two changes of the buffer. Far-UV CD spectra of proteins (1 μM) were obtained using a Jasco-815 spectropolarimeter equipped with a Peltier stage (Japan Spectroscopic Co., Japan) at 25 °C. The spectra were recorded between 200–300 nm with 20 mdeg sensitivity at a scan speed of 50 nm using 2 mm path length cuvette with a bandwidth of 2 nm. Control titrations were performed and all the CD spectra were corrected by subtracting control spectra. Thermal denaturation of the proteins was monitored at single wavelength (222 nm) by increasing temperature from 25 °C-80 °C. The percentage of unfolded protein was calculated by considering the protein at 25 °C as 100 % folded.

[2] = Far-UV circular dichroism spectroscopy; assay type: physicochemical; settings: protein 1 μM, far-UV CD 200–300 nm
Protocol: Fig. 3 Mutation induced conformational changes in HpMutS2. a CD-spectroscopy of HpMutS2, HpMutS2-G338R, and HpMutS2-E413A. Far-UV CD spectra of proteins (1 μM) dialyzed in 50 mM Tris-Cl and 100 mM NaCl were recorded between 200–300 nm with 20 mdeg sensitivity at a scan speed of 50 nm using 2 mm path length cuvette with a bandwidth of 2 nm. The spectra were recorded using Jasco-815 spectropolarimeter. Size exclusion chromatographic analysis of b HpMutS2, c HpMutS2-G338R, and d HpMutS2-E413A was performed using Superose-6 gel filtration column at a constant flow rate of 0.3 ml/min. Approximately 150 μg of all the proteins were spun at 10,000 rpm for 10 min at 4 °C before injection. The absorbance was recorded at 280 nm
as §2, with “Control titrations were performed and all the CD spectra were corrected by subtracting control spectra.” left out

[3] = ATPase assay of HpMutS2 and mutants (TLC, ATP [γ-32P] tracer); assay type: biochemical; settings: for kcat value, fold reduced compared to the wild-type protein / V max / k cat: ATP hydrolysis; for V max / k cat: Mg2+ 5 mM, 37 °C, Michaelis-Menten analysis; for Km value, fold higher compared to the wild-type protein: for ATP; for effect of DNA on ATPase activity: 1 μM
Excerpt: Fig. 1 a Schematic representation of HpMutS2 variants used in this study. Walker-A and Walker-B motifs of HpMutS2 were identified by multiple sequence alignment of MutS2 proteins from different bacteria using Clustal Omega (http://www.ebi.ac.uk/Tools/msa/clustalo/). The mutations in the walker-A and Walker-B motifs were introduced using site directed mutagenesis. The mutated amino acids are highlighted in red. All the proteins were C-terminally His6-tagged. The LDLK motif and Smr domain are conserved nuclease sites of HpMutS2. b Effect of DNA substrates on ATPase activity of HpMutS2. HpMutS2 (45 nM) was incubated with increasing concentrations of ATP [0, 10, 20, 40, 60, 80, 100, 200, 400, 600, 800, and 1000 (μM)]. DNA substrates (1 μM) were added separately to the reaction mixtures. After incubation at 37 °C for 30 min the reactions were stopped by EDTA (50 mM) and the products were separated by TLC. ATP [γ-^32P] was used as tracer to monitor the product formation. Reaction velocities were calculated by quantifying the proportion of products formed to un-reacted substrate divided by incubation time TEXT PRINTED IN THE PICTURE: (A) HpMutS2 (1-762): Mol. wt. (kDa): 87.8 | (A) HpMutS2-G338R (1-762): Mol. wt. (kDa): 87.9 | (A) HpMutS2-E413A (1-762): Mol. wt. (kDa): 87.7 | (A) HpMutS2ΔSmr (1-683): Mol. wt. (kDa): 79.3 | (A) HpMutS2ΔSmr-D30A (1-683): Mol. wt. (kDa): 79.2 | (A) HpSmr (684-762): Mol. wt. (kDa): 9.6
To delineate the characteristics of the ATPase activity of HpMutS2, we initially determined the metal ion requirement for ATP hydrolysis by HpMutS2. Purified HpMutS2 was incubated with excess of cold ATP (100 μM) with or without metal ions (5 mM each), and ATP hydrolysis monitored by thin layer chromatography using radiolabeled ATP [γ-^32P] as tracer. […] Based on the above observations, all subsequent ATPase assays were performed in presence of Mg^2+ (5 mM) at 37 °C using the protein concentrations in the linear range of enzymatic activity for 30 min or below.
ATPase activity of HpMutS2 and mutants was carried out in 10 μl of reaction volume containing 1X buffer A (50 mM Tris pH 8.0, 50 mM NaCl, and 1 mM DTT) containing MgCl2 (5 mM), and ATP [γ-^32P] was used as a tracer. A 1:1000 dilution of 25 μC ATP [γ-^32P] (3500 Ci/mmol) was used with indicated amount of the cold ATP in all the assays. All reactions were carried out at 37 °C for indicated time and terminated by the addition of EDTA (50 mM). 1 μl aliquot of each reaction mixture was spotted on a polyethylene cellulose TLC sheets. The reaction components [ATP and inorganic phosphate (Pi)] were separated by thin layer chromatography (TLC) using 0.4 M […] and 0.1 mM EDTA as mobile phase. The dried TLC sheets were visualized by phosphorimaging and quantified using Image Gauge (Version 3.0). The kinetic parameters were determined using the Michaelis–Menten equation by non-linear regression of plot of rate of product formation versus substrate concentration using GraphPad Prism 5 software. Reaction velocities were calculated by quantifying the proportion of products formed to un-reacted substrate divided by incubation time. To determine the effect of DNA on ATPase activity 1 μM of DNA substrates were added separately to the reaction mixture.

[4] = comparison with literature value

B1: HpMutS2-E413A (enzyme)
chain: MSDAPKRSLNPTLMMNNNNTPPKPLEESLDLKEFIALFKTFFAKERDTIALENDLKQTFTYLNEVDAIGLPTPKSVKESDLIIIKLTKLGTLHLDEIFEIVKRLHYIVVLQNAFKTFTHLKFHERLNAIVLPPFFNDLIALFDDEGKIKQGANATLDALNESLNRLKKESVKIIHHYARSKELAPYLVDTQSHLKHGYECLLLKSGFSGAIKGVVLERSANGYFYLLPESAQKIAQKIAQIGNEIDCCIVEMCQTLSHSLQKHLLFLKFLFKEFDFLDSLQARLNFAKAYNLEFVMPSFTQKKMILENFSHPILKEPKPLNLKFEKSMLAVTGVNAGGKTMLLKSLLSAAFLSKHLIPMKINAHHSIIPYFKEIHAIINDPQNSANNISTFAGRMKQFSALLSKENMLLGVDAIELGTDADEASSLYKTLLEKLLKQNNQIIITTHHKRLSVLMAENKEVELLAALYDEEKERPTYTFLKGVIGKSYAFETALRYGVPHFLIEKAKTFYGEDKEKLNVLIENSSALERELKQKNEHLENALKEQEYLKNAWLLEMEKQKEIFHNKKLELEKSYQQALNILKSEVASKDTSSMHKEIHKASEILSKHKTNQEIPQIITNFQANEKARYKNESVLIVQILDKGYYWIETELGMRLKAHGSLLKKIQKPPKNKFKPPKTTIPKPKEASLRLDLRGQRSEEALDLLDAFLNDALLGGFEEVLICHGKGSGILEKFVKEFLKNHPKVVSFSDAPINLGGSGVKIVKL
notes: also called Walker-B mutant
chymotrypsin
  effect of nucleotide pre-incubation on proteolysis: only a slight effect
  susceptibility to proteolysis compared to the wild-type protein: much more resistant
[1]
  temperature of 50 % unfolding: ~ 50 °C
  thermal stability compared to the other variants: more unstable
[2]
  reduced negative ellipticity compared to the wild-type protein: 30–34%
[3]
  kcat value, fold reduced compared to the wild-type protein: ~ 10 fold
  V max: 0.19 ± 0.03 µM/min
  k cat: 0.0703 ± 0.011 s⁻¹
  Km value, fold higher compared to the wild-type protein: comparable

B2: HpMutS2: Helicobacter pylori MutS2 (1-762), C-terminally His6-tagged wild-type protein, nuclease and ABC ATPase (protein)
chain: MSDAPKRSLNPTLMMNNNNTPPKPLEESLDLKEFIALFKTFFAKERDTIALENDLKQTFTYLNEVDAIGLPTPKSVKESDLIIIKLTKLGTLHLDEIFEIVKRLHYIVVLQNAFKTFTHLKFHERLNAIVLPPFFNDLIALFDDEGKIKQGANATLDALNESLNRLKKESVKIIHHYARSKELAPYLVDTQSHLKHGYECLLLKSGFSGAIKGVVLERSANGYFYLLPESAQKIAQKIAQIGNEIDCCIVEMCQTLSHSLQKHLLFLKFLFKEFDFLDSLQARLNFAKAYNLEFVMPSFTQKKMILENFSHPILKEPKPLNLKFEKSMLAVTGVNAGGKTMLLKSLLSAAFLSKHLIPMKINAHHSIIPYFKEIHAIINDPQNSANNISTFAGRMKQFSALLSKENMLLGVDEIELGTDADEASSLYKTLLEKLLKQNNQIIITTHHKRLSVLMAENKEVELLAALYDEEKERPTYTFLKGVIGKSYAFETALRYGVPHFLIEKAKTFYGEDKEKLNVLIENSSALERELKQKNEHLENALKEQEYLKNAWLLEMEKQKEIFHNKKLELEKSYQQALNILKSEVASKDTSSMHKEIHKASEILSKHKTNQEIPQIITNFQANEKARYKNESVLIVQILDKGYYWIETELGMRLKAHGSLLKKIQKPPKNKFKPPKTTIPKPKEASLRLDLRGQRSEEALDLLDAFLNDALLGGFEEVLICHGKGSGILEKFVKEFLKNHPKVVSFSDAPINLGGSGVKIVKL
modifications: left off: His6, C-terminal, state not stated
notes: Helicobacter pylori MutS2 (1-762), C-terminally His6-tagged wild-type protein, nuclease and ABC ATPase
chymotrypsin
  effect of nucleotide pre-incubation on proteolysis: proteolysis was significantly reduced
[1]
  temperature of 50 % unfolding: ~ 50 °C
[3]; 3′- or 5′-overhangs
  effect of DNA on ATPase activity: negligible increases
[3]
  V max: 1.88 ± 0.13 µM/min
  k cat: 0.6962 ± 0.048 s⁻¹
[3]; [4]
  Km value, fold higher compared to T. thermophilus MutS1: ~ 8 fold
  Km value, fold higher compared to Thermus thermophilus MutS2 (TtMutS2): ~ 9 fold
  kcat value, fold higher compared to T. thermophilus MutS1: ~ 4.5 fold
  kcat value, fold higher compared to Thermus thermophilus MutS2 (TtMutS2): ~ 20 fold
[3]; linear DNA substrates ssDNA, dsDNA
  effect of DNA on ATPase activity: no effect

B3: HpMutS2-G338R (protein)
chain: MSDAPKRSLNPTLMMNNNNTPPKPLEESLDLKEFIALFKTFFAKERDTIALENDLKQTFTYLNEVDAIGLPTPKSVKESDLIIIKLTKLGTLHLDEIFEIVKRLHYIVVLQNAFKTFTHLKFHERLNAIVLPPFFNDLIALFDDEGKIKQGANATLDALNESLNRLKKESVKIIHHYARSKELAPYLVDTQSHLKHGYECLLLKSGFSGAIKGVVLERSANGYFYLLPESAQKIAQKIAQIGNEIDCCIVEMCQTLSHSLQKHLLFLKFLFKEFDFLDSLQARLNFAKAYNLEFVMPSFTQKKMILENFSHPILKEPKPLNLKFEKSMLAVTGVNAGRKTMLLKSLLSAAFLSKHLIPMKINAHHSIIPYFKEIHAIINDPQNSANNISTFAGRMKQFSALLSKENMLLGVDEIELGTDADEASSLYKTLLEKLLKQNNQIIITTHHKRLSVLMAENKEVELLAALYDEEKERPTYTFLKGVIGKSYAFETALRYGVPHFLIEKAKTFYGEDKEKLNVLIENSSALERELKQKNEHLENALKEQEYLKNAWLLEMEKQKEIFHNKKLELEKSYQQALNILKSEVASKDTSSMHKEIHKASEILSKHKTNQEIPQIITNFQANEKARYKNESVLIVQILDKGYYWIETELGMRLKAHGSLLKKIQKPPKNKFKPPKTTIPKPKEASLRLDLRGQRSEEALDLLDAFLNDALLGGFEEVLICHGKGSGILEKFVKEFLKNHPKVVSFSDAPINLGGSGVKIVKL
chymotrypsin
  effect of nucleotide pre-incubation on proteolysis: only a slight effect
  susceptibility to proteolysis compared to the wild-type protein: slightly more susceptible to proteolysis
[1]
  thermal stability compared to the other variants: more stable at up to 80 °C
[2]
  reduced negative ellipticity compared to the wild-type protein: no significant changes
[3]
  kcat value, fold reduced compared to the wild-type protein: ~ 3 fold
  V max: 0.64 ± 0.15 µM/min
  k cat: 0.237 ± 0.0555 s⁻¹
  Km value, fold higher compared to the wild-type protein: ~ 2.3 fold
